Laboratory results taken from publication PMC13480645.

Target: MERS-CoV S2 stem helix peptide (MERS-CoV)

Chain of S2P6 (antibody) (VH): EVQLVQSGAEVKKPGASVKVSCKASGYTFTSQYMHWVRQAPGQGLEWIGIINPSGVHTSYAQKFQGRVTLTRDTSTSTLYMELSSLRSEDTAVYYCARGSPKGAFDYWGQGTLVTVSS
Chain of S2P6 (antibody) (VL): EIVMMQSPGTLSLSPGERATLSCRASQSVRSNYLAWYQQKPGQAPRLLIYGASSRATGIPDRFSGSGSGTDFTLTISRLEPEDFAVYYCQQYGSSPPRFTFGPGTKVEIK

S2P6 (antibody) showed an IC50 of neutralisation of MERS-CoV pseudovirus (HeLa-hDPP4 cells) of 8.37 mg/L.
